According to article PMC11021269, “HspBP1 in Complex with the Peptide of the Innate Immunity Protein Tag7 is Able to Lyse Tumor Cells Carrying TNFR1 Receptor” (Doklady. Biochemistry and Biophysics, 2024):

How the values were obtained:
[1] = tested on: L929 cells (mouse fibroblasts) bearing the TNFR1 receptor; test: Cytotoxicity on L929 cells (Cytotox kit, Promega); format: cell-based
Protocol: L929 cells (mouse fibroblasts) were cultured in DMEM medium (PanEco, RA) supplemented with 10% fetal bovine serum (HyClone, United States). The culture was obtained from the bank of cell lines of the Blokhin Russian Cancer Research Center of the Russian Academy of Medical Sciences. To measure cytotoxicity, proteins and protein complexes were added to the L929 culture at a concentration of 1 nM, unless a different concentration was specified, and incubated for 3 or 20 h. Cytotoxicity was measured using a Cytotox kit (Promega, United States) according to the manufacturer’s method. To inhibit cytotoxicity, blocking antibodies to TNFR1 were used at a concentration of 10 μg/mL (Invitrogen, United States). Data from 5 different experiments are used.

HspBP1 = molecular target: T1, HspBP1 (Homo sapiens, UniProt Q9NZL4); test: Microscale thermophoresis, binding to Alexa Fluor 633-labeled HspBP1; settings: labeled HspBP1 200 nM, 20 min incubation, room temperature, 16 concentrations, triplicate; read-out: dissociation constant of the complex with HspBP1, thermophoresis
T1 construct: made in house
T1 sequence (Q9NZL4 1-359): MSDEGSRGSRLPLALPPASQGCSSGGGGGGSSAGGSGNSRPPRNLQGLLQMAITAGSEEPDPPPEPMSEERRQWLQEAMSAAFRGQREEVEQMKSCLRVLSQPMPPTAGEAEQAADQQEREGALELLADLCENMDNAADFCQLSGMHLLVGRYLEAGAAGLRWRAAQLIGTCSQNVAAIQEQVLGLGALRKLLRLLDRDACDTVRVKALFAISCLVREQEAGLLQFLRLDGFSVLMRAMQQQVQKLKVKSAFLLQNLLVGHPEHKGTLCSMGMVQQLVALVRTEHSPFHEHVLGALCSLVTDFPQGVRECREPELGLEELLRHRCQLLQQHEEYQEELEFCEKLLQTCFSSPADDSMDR
Protocol: Purified HspBP1 was fluorescently labeled using Alexa Fluor 633 (Eugene, OR, United States) according to the manufacturer’s instructions. HspBP1 (200 nM) was incubated for 20 min with each compound in the dark at room temperature at 16 different concentrations obtained by serial dilution starting with the highest soluble concentration. Samples were loaded into glass capillaries (Monolith NT Capillaries) and analyzed by thermophoresis using a Monolith NT 115 nanotemperature instrument (IR laser power 10%). The signal quality was monitored with a NanoTemper Monolith instrument to detect possible ligand autofluorescence, precipitation, aggregation, or ligand-induced changes in photobleaching rate. Experiments were performed in triplicate and processed using affinity analysis software (MO Control v.1.6.1, Nano-Temper).

Hsp70 = settings: shown previously; read-out: dissociation constant for Hsp70; cited from earlier work
Protocol: For 17.1–HspBP1, equal to 3.91 nM is also close to these values. […] It can be assumed that the lack of cytotoxic activity inTag7–HspBP1 is associated with its dissociation upon interaction with cells. Thus, a correlation between the affinity of protei ...

Molecule: Tag7–HspBP1 complex: complex of the Tag7 protein with the HspBP1 protein
- cytotoxic activity (time not given) [1]: does not have cytotoxic activity
- cytotoxic activity after 3 h of incubation ([1]; complexes at 1 nM, 3 h (apoptosis), 5 experiments): did not have cytotoxic activity
- cytotoxic activity after 20 h of incubation ([1]; complexes at 1 nM, 20 h (necroptosis), 5 experiments): did not have cytotoxic activity

B1: HspBP1: recombinant co-chaperone that regulates the ATPase activity of Hsp70 (protein, UniProt Q9NZL4 1-359, looked up)
Hsp70-binding protein 1: MSDEGSRGSRLPLALPPASQGCSSGGGGGGSSAGGSGNSRPPRNLQGLLQMAITAGSEEPDPPPEPMSEERRQWLQEAMSAAFRGQREEVEQMKSCLRVLSQPMPPTAGEAEQAADQQEREGALELLADLCENMDNAADFCQLSGMHLLVGRYLEAGAAGLRWRAAQLIGTCSQNVAAIQEQVLGLGALRKLLRLLDRDACDTVRVKALFAISCLVREQEAGLLQFLRLDGFSVLMRAMQQQVQKLKVKSAFLLQNLLVGHPEHKGTLCSMGMVQQLVALVRTEHSPFHEHVLGALCSLVTDFPQGVRECREPELGLEELLRHRCQLLQQHEEYQEELEFCEKLLQTCFSSPADDSMDR
- effect on the cytotoxic activity of the Tag7–Hsp70 complex ([1]; increasing concentration of HspBP1, Fig. 1a): inhibits the cytotoxic activity of the Tag7–Hsp70 complex in a dose-dependent manner

B2: Tag7: innate immunity protein Tag7, a ligand for the TNFR1 receptor (protein, UniProt O75594 1-196, looked up)
chain: MSRRSMLLAWALPSLLRLGAAQETEDPACCSPIVPRNEWKALASECAQHLSLPLRYVVVSHTAGSSCNTPASCQQQARNVQHYHMKTLGWCDVGYNFLIGEDGLVYEGRGWNFTGAHSGHLWNPMSIGISFMGNYMDRVPTPQAIRAAQGLLACGVAQGALRSNYVLKGHRDVQRTLSPGNQLYHLIQNWPHYRSP
modifications: full-length
notes: innate immunity protein Tag7, a ligand for the TNFR1 receptor
- Kd (HspBP1): 328 nM
- Kd (Hsp70): 1.73 nM
